B1: CDC25A (parent)
chain: QLIDPDENKENEAFEFKKPVRPVS
B2: PTPN9 (parent)
chain: IDFLRVVRNQQSLAVSNMGARSKG

Variants of: B1
Assay: protein stability index of a GFP-peptide fusion (GPS, HEK-293T) (PSI 1-6); higher = more stable
Conditions: c terminus: a fixed tail appended
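Also: lentivirally expressed fusions sorted by FACS into six bins by GFP to DsRed ratio, PSI derived from sequencing read proportions per bin multiplied by bin number.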

| Variant | protein stability index |
| --- | --- |
| QLIDPDENKENEAFEFKRPVRPVS [K18R] | 3.89 |
| QLIDPDENKENEAFEFKLPVRPVS [K18L] | 4.39 |
| QLIDPDENKENEAFEFKAPVRPVS [K18A] | 3.7 |
| QLIDPDENKENEAFEFKIPVRPVS [K18I] | 3.97 |
| QLIDPDENKENEAFEFKPPVRPVS [K18P] | 4.29 |
| QLIDPDENKENEAFEFKWPVRPVS [K18W] | 3.73 |
| QLIDPDENKENEAFEFKGPVRPVS [K18G] | 4.04 |
| QLIDPDENKENEAFEFKKRVRPVS [P19R] | 3.85 |
| QLIDPDENKENEAFEFKKSVRPVS [P19S] | 4.09 |
| QLIDPDENKENEAFEFKKLVRPVS [P19L] | 3.52 |
| QLIDPDENKENEAFEFKKVVRPVS [P19V] | 4.42 |
| QLIDPDENKENEAFEFKKGVRPVS [P19G] | 4.06 |
| QLIDPDENKENEAFEFKKCVRPVS [P19C] | 3.6 |
| QLIDPDENKENEAFEFKKWVRPVS [P19W] | 3.87 |
| QLIDPDENKENEAFEFKKIVRPVS [P19I] | 4.07 |
| QLIDPDENKENEAFEFKKAVRPVS [P19A] | 4.44 |
| QLIDPDENKENEAFEFKKHVRPVS [P19H] | 3.95 |
| QLIDPDENKENEAFEFKKFVRPVS [P19F] | 4.44 |
| QLIDPDENKENEAFEFKKYVRPVS [P19Y] | 3.07 |
| QLIDPDENKENEAFEFKKQVRPVS [P19Q] | 4.02 |

| Variant | protein stability index |
| --- | --- |
| QLIDPDENKENEAFEFKKNVRPVS [P19N] | 4.43 |
| QLIDPDENKENEAFEFKKMVRPVS [P19M] | 3.74 |
| QLIDPDENKENEAFEFKKTVRPVS [P19T] | 4.09 |
| QLIDPDENKENEAFEFKKPVRIVS [P22I] | 4.31 |
| QLIDPDENKENEAFEFKKPVRVVS [P22V] | 4.05 |
| QLIDPDENKENEAFEFKKPVRGVS [P22G] | 3.66 |
| QLIDPDENKENEAFEFKKPVRLVS [P22L] | 3.45 |
| QLIDPDENKENEAFEFKKPVRDVS [P22D] | 4.45 |
| QLIDPDENKENEAFEFKKPVRYVS [P22Y] | 4.71 |
| QLIDPDENKENEAFEFKKPVRNVS [P22N] | 4.14 |
| QLIDPDENKENEAFEFKKPVRFVS [P22F] | 3.69 |
| QLIDPDENKENEAFEFKKPVRTVS [P22T] | 2.8 |
| QLIDPDENKENEAFEFKKPVRHVS [P22H] | 3.38 |
| QLIDPDENKENEAFEFKKPVRKVS [P22K] | 3.25 |
| QLIDPDENKENEAFEFKKPVRSVS [P22S] | 4.05 |
| QLIDPDENKENEAFEFKKPVRAVS [P22A] | 3.23 |
| QLIDPDENKENEAFEFKKPVRRVS [P22R] | 4.23 |
| QLIDPDENKENEAFEFKKPVRCVS [P22C] | 4.98 |
| QLIDPDENKENEAFEFKKPVRMVS [P22M] | 4.08 |

Variants of: B2
Assay: as above
Conditions: c terminus: a fixed tail appended

| Variant | protein stability index |
| --- | --- |
| IEFLRVVRNQQSLAVSNMGARSKG [D2E] | 2.54 |
| IMFLRVVRNQQSLAVSNMGARSKG [D2M] | 1.38 |
| IVFLRVVRNQQSLAVSNMGARSKG [D2V] | 2.84 |
| ISFLRVVRNQQSLAVSNMGARSKG [D2S] | 2.55 |
| IWFLRVVRNQQSLAVSNMGARSKG [D2W] | 2.16 |
| IPFLRVVRNQQSLAVSNMGARSKG [D2P] | 2.54 |
| IKFLRVVRNQQSLAVSNMGARSKG [D2K] | 1.42 |
| IAFLRVVRNQQSLAVSNMGARSKG [D2A] | 1.82 |
| IIFLRVVRNQQSLAVSNMGARSKG [D2I] | 2.35 |
| IFFLRVVRNQQSLAVSNMGARSKG [D2F] | 2.33 |
| ICFLRVVRNQQSLAVSNMGARSKG [D2C] | 2.06 |
| INFLRVVRNQQSLAVSNMGARSKG [D2N] | 2.06 |
| ITFLRVVRNQQSLAVSNMGARSKG [D2T] | 2.05 |
| IHFLRVVRNQQSLAVSNMGARSKG [D2H] | 2.41 |
| ILFLRVVRNQQSLAVSNMGARSKG [D2L] | 1.53 |
| IRFLRVVRNQQSLAVSNMGARSKG [D2R] | 2.03 |
| IGFLRVVRNQQSLAVSNMGARSKG [D2G] | 2.64 |
| IYFLRVVRNQQSLAVSNMGARSKG [D2Y] | 1.78 |
| IQFLRVVRNQQSLAVSNMGARSKG [D2Q] | 1.88 |
| IDTLRVVRNQQSLAVSNMGARSKG [F3T] | 4.5 |
| IDSLRVVRNQQSLAVSNMGARSKG [F3S] | 3.88 |
| IDILRVVRNQQSLAVSNMGARSKG [F3I] | 2.34 |
| IDDLRVVRNQQSLAVSNMGARSKG [F3D] | 4.21 |
| IDKLRVVRNQQSLAVSNMGARSKG [F3K] | 3.93 |
| IDHLRVVRNQQSLAVSNMGARSKG [F3H] | 4.36 |
| IDQLRVVRNQQSLAVSNMGARSKG [F3Q] | 3.89 |
| IDGLRVVRNQQSLAVSNMGARSKG [F3G] | 4.02 |
| IDELRVVRNQQSLAVSNMGARSKG [F3E] | 4.29 |

| Variant | protein stability index |
| --- | --- |
| IDNLRVVRNQQSLAVSNMGARSKG [F3N] | 4.45 |
| IDCLRVVRNQQSLAVSNMGARSKG [F3C] | 3.89 |
| IDVLRVVRNQQSLAVSNMGARSKG [F3V] | 3.78 |
| IDMLRVVRNQQSLAVSNMGARSKG [F3M] | 2.75 |
| IDALRVVRNQQSLAVSNMGARSKG [F3A] | 3.55 |
| IDRLRVVRNQQSLAVSNMGARSKG [F3R] | 3.69 |
| IDLLRVVRNQQSLAVSNMGARSKG [F3L] | 2.47 |
| IDPLRVVRNQQSLAVSNMGARSKG [F3P] | 4.2 |
| NDFLRVVRNQQSLAVSNMGARSKG [I1N] | 3.83 |
| WDFLRVVRNQQSLAVSNMGARSKG [I1W] | 2.88 |
| MDFLRVVRNQQSLAVSNMGARSKG [I1M] | 2.96 |
| YDFLRVVRNQQSLAVSNMGARSKG [I1Y] | 3.47 |
| GDFLRVVRNQQSLAVSNMGARSKG [I1G] | 3.72 |
| PDFLRVVRNQQSLAVSNMGARSKG [I1P] | 4.25 |
| EDFLRVVRNQQSLAVSNMGARSKG [I1E] | 4 |
| VDFLRVVRNQQSLAVSNMGARSKG [I1V] | 3.03 |
| DDFLRVVRNQQSLAVSNMGARSKG [I1D] | 4.38 |
| ADFLRVVRNQQSLAVSNMGARSKG [I1A] | 3.18 |
| LDFLRVVRNQQSLAVSNMGARSKG [I1L] | 2.95 |
| FDFLRVVRNQQSLAVSNMGARSKG [I1F] | 2.75 |
| KDFLRVVRNQQSLAVSNMGARSKG [I1K] | 3.59 |
| QDFLRVVRNQQSLAVSNMGARSKG [I1Q] | 4.35 |
| HDFLRVVRNQQSLAVSNMGARSKG [I1H] | 3.96 |
| TDFLRVVRNQQSLAVSNMGARSKG [I1T] | 3.43 |
| CDFLRVVRNQQSLAVSNMGARSKG [I1C] | 2.8 |
| SDFLRVVRNQQSLAVSNMGARSKG [I1S] | 3.1 |
| RDFLRVVRNQQSLAVSNMGARSKG [I1R] | 3.35 |
